Target: T1, WWP2 WT (human, UniProt O00308 1-870)
T1 construct: called the ~100 kDa WWP2 protein; Unlabelled WWP2 titrated in the fluorescence anisotropy assays; also called WT WWP2; source: E. coli (BL-21 (DE3) Codon+ or BL21 Rosetta (DE3) pLysS), purified (glutathione agarose, GST removed, size exclusion)
Assay: fluorescence polarisation; fluorescence anisotropy; 100 nM fluorescein-labeled WBP2, WWP2 titrated; 23 °C; quadratic binding fit
Conditions: both partners purified

T1 sequence (O00308 whole entry): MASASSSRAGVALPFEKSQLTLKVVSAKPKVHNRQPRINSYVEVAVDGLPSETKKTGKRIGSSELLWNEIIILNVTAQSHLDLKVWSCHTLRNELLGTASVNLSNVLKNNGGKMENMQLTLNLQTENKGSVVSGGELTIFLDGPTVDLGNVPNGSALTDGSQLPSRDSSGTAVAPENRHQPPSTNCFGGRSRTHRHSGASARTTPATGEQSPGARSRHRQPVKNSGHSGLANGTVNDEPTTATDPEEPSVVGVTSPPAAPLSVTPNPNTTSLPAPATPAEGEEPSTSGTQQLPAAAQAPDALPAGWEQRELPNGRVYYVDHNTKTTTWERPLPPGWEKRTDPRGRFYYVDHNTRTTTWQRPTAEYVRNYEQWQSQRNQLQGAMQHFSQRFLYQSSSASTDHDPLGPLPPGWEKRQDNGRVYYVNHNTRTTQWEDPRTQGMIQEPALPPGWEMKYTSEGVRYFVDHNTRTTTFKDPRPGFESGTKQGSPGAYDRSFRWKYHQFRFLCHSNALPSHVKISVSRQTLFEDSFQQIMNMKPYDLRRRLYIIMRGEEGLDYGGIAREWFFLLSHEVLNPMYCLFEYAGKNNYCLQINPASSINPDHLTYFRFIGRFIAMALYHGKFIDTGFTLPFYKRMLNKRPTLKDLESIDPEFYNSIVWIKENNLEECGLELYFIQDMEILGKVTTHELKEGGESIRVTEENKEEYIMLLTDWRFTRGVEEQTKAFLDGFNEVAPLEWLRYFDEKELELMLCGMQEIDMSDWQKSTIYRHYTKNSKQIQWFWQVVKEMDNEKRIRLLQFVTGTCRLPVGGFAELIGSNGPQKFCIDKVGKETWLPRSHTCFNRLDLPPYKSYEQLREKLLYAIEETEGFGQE

B1: Fluorescein N-terminal-labeled WBP2 (aa. 149-261) (domain or fragment, human, UniProt Q969T9 149-261, looked up)
chain: PSGAYVYPPPVANGMYPCPPGYPYPPPPPEFYPGPPMMDGAMGYVQPPPPPYPGPMEPPVSGPDVPSTPAAEAKAAEAAASAYYNPGNPHNVYMPTSQPPPPPYYPPEDKKTQ
modifications: fluorescein (5/6-carboxyfluorescein, FAM) on the N-terminus
notes: WBP2, human, aa; 149-261, from pET28b-WBP2; Labelled 'with a similar procedure as that used for WWP2' (N-terminal Cys after protease cleavage), so an N-terminal Cys and loss of the tag may apply; also called FAM labeled WBP2; fluorescein-labeled WBP2; source: E. coli Rosetta pLysS, purified (Ni-NTA, Superdex 75), fluorescein labelled
Kd: 3.7 µM

— article PMC9034101, “Enzymatic analysis of WWP2 E3 ubiquitin ligase using protein microarrays identifies autophagy-related substrates” (The Journal of Biological Chemistry, 2022)
